Laboratory results as given in patent US20230383269A1 (DSM AUSTRIA, published 2023).

B1: alpha/beta hydrolase variant of SEQ ID NO: 4 (N167S) (enzyme)
chain: MTDQSPETRDIFVPHAFEEQQVDLGEVVMNYVEAGSADHPALLLLPEQTGSWWSYEPVIGLLAESFHVFAVDIRGQGRSTWTPKRYSLDNFGNDLVRFISLVVKRPVIVSGNSSGGVLAAWLSAYAMPGQIRAALCEDTPFFASELVPAHGHSVRQAAGPAFELYRSFLGDQWSVADWDGFAAAAKASPSKIMSLFPSSDEPPQNLKEYDPEWARAFFEGTVALHCPHDLMLSQVKTPILITHHARAVDPHSGDLLGALSDFQAERAQAIIESAGVPVEYASFPDALHMMHQFEPERFAEVLTSWVARLPADTPGAHHHHHH
notes: homo-tetramer; also called zearalenone-cleaving polypeptide
B2: alpha/beta hydrolase variant of SEQ ID NO: 5 (N167A) (enzyme)
chain: MTDQSPETRDIFVPHAFEEQQVDLGEVVMNYVEAGSADHPALLLLPEQTGSWWSYEPVIGLLAESFHVFAVDIRGQGRSTWTPKRYSLDNFGNDLVRFISLVVKRPVIVSGNSSGGVLAAWLSAYAMPGQIRAALCEDTPFFASELVPAHGHSVRQAAGPAFELYRAFLGDQWSVADWDGFAAAAKASPSKIMSLFPSSDEPPQNLKEYDPEWARAFFEGTVALHCPHDLMLSQVKTPILITHHARAVDPHSGDLLGALSDFQAERAQAIIESAGVPVEYASFPDALHMMHQFEPERFAEVLTSWVARLPADTPGAHHHHHH
notes: as for B1
B3: alpha/beta hydrolase variant of SEQ ID NO: 6 (N167C) (enzyme)
chain: MTDQSPETRDIFVPHAFEEQQVDLGEVVMNYVEAGSADHPALLLLPEQTGSWWSYEPVIGLLAESFHVFAVDIRGQGRSTWTPKRYSLDNFGNDLVRFISLVVKRPVIVSGNSSGGVLAAWLSAYAMPGQIRAALCEDTPFFASELVPAHGHSVRQAAGPAFELYRCFLGDQWSVADWDGFAAAAKASPSKIMSLFPSSDEPPQNLKEYDPEWARAFFEGTVALHCPHDLMLSQVKTPILITHHARAVDPHSGDLLGALSDFQAERAQAIIESAGVPVEYASFPDALHMMHQFEPERFAEVLTSWVARLPADTPGAHHHHHH
notes: as for B1
B4: alpha/beta hydrolase variant of SEQ ID NO: 7 (N167L) (enzyme)
chain: MTDQSPETRDIFVPHAFEEQQVDLGEVVMNYVEAGSADHPALLLLPEQTGSWWSYEPVIGLLAESFHVFAVDIRGQGRSTWTPKRYSLDNFGNDLVRFISLVVKRPVIVSGNSSGGVLAAWLSAYAMPGQIRAALCEDTPFFASELVPAHGHSVRQAAGPAFELYRLFLGDQWSVADWDGFAAAAKASPSKIMSLFPSSDEPPQNLKEYDPEWARAFFEGTVALHCPHDLMLSQVKTPILITHHARAVDPHSGDLLGALSDFQAERAQAIIESAGVPVEYASFPDALHMMHQFEPERFAEVLTSWVARLPADTPGAHHHHHH
notes: as for B1
B5: alpha/beta hydrolase variant of SEQ ID NO: 8 (N167T, S174T) (enzyme)
chain: MTDQSPETRDIFVPHAFEEQQVDLGEVVMNYVEAGSADHPALLLLPEQTGSWWSYEPVIGLLAESFHVFAVDIRGQGRSTWTPKRYSLDNFGNDLVRFISLVVKRPVIVSGNSSGGVLAAWLSAYAMPGQIRAALCEDTPFFASELVPAHGHSVRQAAGPAFELYRTFLGDQWTVADWDGFAAAAKASPSKIMSLFPSSDEPPQNLKEYDPEWARAFFEGTVALHCPHDLMLSQVKTPILITHHARAVDPHSGDLLGALSDFQAERAQAIIESAGVPVEYASFPDALHMMHQFEPERFAEVLTSWVARLPADTPGAHHHHHH
notes: as for B1
B6: alpha/beta hydrolase variant of SEQ ID NO: 9 (N167T, S174C) (enzyme)
chain: MTDQSPETRDIFVPHAFEEQQVDLGEVVMNYVEAGSADHPALLLLPEQTGSWWSYEPVIGLLAESFHVFAVDIRGQGRSTWTPKRYSLDNFGNDLVRFISLVVKRPVIVSGNSSGGVLAAWLSAYAMPGQIRAALCEDTPFFASELVPAHGHSVRQAAGPAFELYRTFLGDQWCVADWDGFAAAAKASPSKIMSLFPSSDEPPQNLKEYDPEWARAFFEGTVALHCPHDLMLSQVKTPILITHHARAVDPHSGDLLGALSDFQAERAQAIIESAGVPVEYASFPDALHMMHQFEPERFAEVLTSWVARLPADTPGAHHHHHH
notes: as for B1

Biological target: the molecule itself
Assay: Blue-Native-PAGE, oligomeric conformation (self-association of identical chains)
Text: Comparison of the native molecular weight (oligomeric conformation) between single purified zearalenone-cleaving polypeptides was done via Blue-Native-PAGE. Dilutions of the elutes were supplied with not denaturating loading dye (e.g. 2× loading dye: 0.126 M tris(hydroxymethyl)aminomethan/hydrochloric acid pH 6.8, 20.0% glycerol, 4.0% Coomassie Blue G-250) and separated on a 4-15% polyacrylamid gel under native conditions (e.g. Mini-PROTEAN® Tetra Cell System, 1658004EDU+4-15% Mini-PROTEAN® TGX™ Precast Protein Gels, 4561083EDU, Bio-Rad Laboratories GmbH) (5× Anode Buffer: 0.125 M Tris(hydroxymethyl)aminomethane, 0.960 M Glycine, 1× Kathode Buffer: Anode Buffer+0.02% Coomassie Blue G250; 200 V, 40 minutes). The peptide bands were visualized by Coomassie staining. The oligomeric state of selected zearalenone-cleaving polypeptides was determined by size exclusion chromatography, SEC-MALS or X-Ray crystallography. Homo-dimers (e.g. SEQ ID NO. 1) migrated faster across the BN-PAGE gel matrix, while homo-tetramers (e.g. SEQ ID NO. 2-35) were retained in the gel matrix to a higher extent. The oligomeric conformation of the zearalenone-cleaving polypeptides was determined relatively to the migration of homo-dimeric and homo-tetrameric peptides.

Binding result, binds:
B1, B2, B3, B4, B5, B6
